Data: the DeepSol protein solubility set

test: soluble on expression in E. coli; label from the status in PepcDB or PDB records

| Sequence | soluble on expression in E. coli |
| --- | --- |
| MLINKTKRAEQNLNNLPFLALQAEQIEFLGSSAEFKTQIIELIRNAKKRIYVTALYWQKDEAGQEILDEIYRVKQENPHLDVKVLIDWHRAQRNLLGAEKSATNADWYCEQRQTYQLPDDPNMFFGVPINTREVFGVLHVKGFVFDDTVLYSGASINNVYLHQFEKYRYDRYQKITHAELADSMVNFINDYLLDFSAVYPLDVTNRPRTKEIRGNIRAYRKDLAQNGEYSLKSAVKLPNVLSVSPLFGLGASGNELNQVIEDLFLQVQKKLVICTPYFNFPRTLQHKIATLLENGKRVEIIVGDKVANDFYIPPEQPFKMAGALPYLYESNLRRFCEKFETQIESGQLVVRLWRDGDNTYHLKGVWVDDRYILLTGNNLNPRAWRLDAENGLLIYDPQQQLLAQVEKEQNQIRQHTKVLKHYTELEELNQYPEPVQKLLKKFARIKADKLVKMILAAALEHHHHHH | soluble |
| MNRSNQDITQPTAIIAVVGVGAEQGIGAAVCRRFAQEKFKVYVAGRTLNKVEKVAAAIHRQGGQAVAYVLDAENEQQLQTLFDHLNDQPEALAAVIHNVGGNIPSIFLQSSLKFFSQMWRSTFLSSVLVAQRSLSIFQKQQQGTLIFTGASASLRGKPFFAAFSMGKSALRSYALNLAELYRSQNIHVAHVMVDGMVDGDRVNKALWGLGRLARLTRGTGGLNIDAIAENYWMLYQQNVDLWTHELDLRPYQEKF | not soluble |
| MHMSFDGMFTYGMTHELNEKIMGGRITKIHQPYKHDVIFHIRAKGKNQKLLLSAHPSYSRVHITAQAYENPSEPPMFCMLLRKHIEGGFIEKIEQAGLDRIMIFHIKSRNEIGDETVRKLYVEIMGRHSNIILTDAAENVIIDGLKHLSPSMNSYRTVLPGQDYKLPPAQDKISPLEASEDDILRHLSFQEGRLDKQIVDHFSGVSPLFAKEAVHRAGLANKVTLPKALLALFAEVKEHRFIPNITTVNGKEYFYLLELTHLKGEARRFDSLSELLDRFYFGKAERDRVKQQAQDLERFVVNERKKNANKIKKLEKTLEYSENAKEFQLYGELLTANLYMLKKGDKQAEVINYYDEESPTITIPLNPNKTPSENAQAYFTKYQKAKNSVAVVEEQIRLAQEEIEYFDQLIQQLSSASPRDISEIREELVEGKYLRPKQQKGQKKQKP | soluble |
| MNQNKSNVPVSVAEEPDELSYYRLTLLSFLRESHPDLADDESFVATRSEQAAEAFSAAVRSGLTYDDAAQQANALLFQGLHFSPLDTLVTVLWNEFAAEVPEGSARSVALQLLPECRKVFAGYTLSDDFMFSPEFGQLYDELTGTVVIWLEENGL | not soluble |
| MVMWVFGYGSLVWNPGFHYDEKVLGFIKGYKRVFDLACIDHRGTPEHPARTCTLEKAEEAICWGTAFCVRGGPEKERLAMEEDDPLKPAVTGVIVFTSTPDKVSNKYYLGPAPLEDMARFLSSHLAVILYIQRQIATANGPCGNNRDYLFLLEKAMHDIGFVVKGSDLDGFKRDIVFDVLSHFLFHTGHEEDYVIELANEVRKVLAESSTKKVTPVKESRASRVANKSKNNVPTAHQILPHHPEAVATTI | soluble |
| MGSDKIHHHHHHMYDNDLWFATINLPYRQKLELLRIYKTSDEILYNFKNSELIQKYKFDIEKINYIKDEMKKSGMKIVFWNDDDYPKVLKNYDDMPYGLFYMGNIKKLNELNYNVAIVGSRRCTQYGKDITTIISREISINGIGIISGMARGIDTYAHKICLENNGYTCAVLGCGADVIYPKENKNLYCQIIRNGCIISQYKPNTKPLPYNFPIRNKIISGLSNLVLVTEADIKSGSIITASSALEQGKDVGAVPGSVFSKMSRGTNKLIQDGAHVIKDIDDVFGILNFQKINFKKIRNNSSYSSMPENQRQIYDLVSDKPIHVDDIKRCLNIDIQELYELLFEMQLKNKILCLSGSYYVRVNDCL | not soluble |
| EGLNICKKIMVISDKNDAISEFIIKELERGCTIIDGKGGYTGKDTYILYTVLNRKEFIRLRIFIKETDPNAFITISDAKEVLGEGFKEI | not soluble |
| MAHHHHHHMEAETSKISEVPLPIPIGINGFGAVGRAVLFASMTEPQVTVVAVNDFSVSINYVLYVLQNESPLSAEDKASLTVVGEYIFYRGTERIRVTQKHDLVDIAWRDAGVSYVVECTGFTSTRDRCWGHLTSGARGVLVAGQSGDAPAIVAGVNDSDLSKIQPIICSGAPLAVALAPFIRILHESFGVEDCSYTAIHAIQPVEPNAARSANSQDWRQTRVTLDSITPYAHTGMTTFCKLMPTLSSRITGSAFQVPVTKGCAIDMLLRFKQPVAKESVDEALIEASKDRLKDVLFVSKRDFISRDLLPDGKLCYDPSASQCVREGELYKFTLWFDLERSFAKRLISLIPVMNDADAKKNNV | soluble |
| MALLWQLARNAEGDDPTNLESALIGKPVPKFRLESLDNPGQFYQADVLTQGKPVLLNVWATWCPTCRAEHQYLNQLSAQGIRVVGMNYKDDRQKAISWLKELGNPYALSLFDGDGMLGLDLGVYGAPETFLIDGNGIIRYRHAGDLNPRVWEEEIKPLWEKYSKEAAQ | soluble |
| MIIKDILRENQDFRFRDLSDLKHSPKLCIITCMDSRLIDLLERALGIGRGDAKVIKNAGNIVDDGVIRSAAVAIYALGDNEIIIVGHTDCGMARLDEDLIVSRMRELGVEEEVIENFSIDVLNPVGDEEENVIEGVKRLKSSPLIPESIGVHGLIIDINTGRLKPLYLDE | soluble |
| MVLDRQHLGVTKSRCIVWGVAFLSDGTVISVDSVGKVQLWDSATGTLVKSHLVANADVQSIAVADQEDSFVVGTAEGTVFHFQLVSMTSNSSEKQWVRTKPFQHHTHDVRAVAHSPTALISGGTDTHLVIRPLMERVEVKNYDAALRKITFPHRRLISCSKRRQLLLFQFAHHLELWRLGSTSATGKNGDTLPLSKNADHLLHLKTKGPENIICSCVSPCGSWIAYSTASRFFLYRLKYERDNISLQRVSKLPSFLRSALHILFSEDSTKLLVASNQGSLHIVHLSEGSFKHLHTFQPQSGTVEAMCLLAVSPDGNWLAASGTSAGVHVYDLHHLKLHCTVPAYNFPVTALAIAPNTNNLVIAHSDQQVFEFSIPEKQYTEWSRSLQKQGFHQLWLQRDTPITHISFHPKRPMHILLHDAYMFCIIDKSLPLPNEKTVLYNPLPPKNESDVFLRRTTHGFKMSKIYKPLLFMDLLDERTLVAVERPLDDIIAQLPPPIKKKKFGT | not soluble |
| MKKTFNLVATAAAGIEAVVGKELRNLGLDCQVENGRVLFKGNIETIAKSNLWLRSADRIKIVVGEFPARTFEELFQGVYALDWENYLPLGCQFPVAKAKSVKSKLHNEPSIQGITKKAIVKKLQHYFHRPDSVPLPENGPEFKIEISLLKDQARVMIDTTGPSLFKRGYRTEKGGAPIKENMAAAIILLSNWFPDKPFVDPTCGSGTFCIEAAMIGMNIAPGFNRDFAFEEWPWVDEALVTRVRNEADEQADYDIQLDISGFDFDGRMVEIARKNAREVGLEDVVKLKQMRLQDFKTNKINGVLISNPPYGERLLDDKAVDILYNEMGETFAPLKTWSQFILTNDTDFEQKFGRKADKKRKLYNGSLKVDLYQFYGQRVKRVLR | soluble |
| MPLVVFCGLPYSGKSRRAEELRVALAAEGRAVYVVDDAAVLGAEDPAVYGDSAREKALRGALRASVERRLSRHDVVILDSLNYIKGFRYELYCLARAARTPLCLVYCVRPGGPIAGPQVAGANENPGRNVSVSWRPRAEEDGRAQAAGSSVLRELHTADSVVNGSAQADVPKELEREESGAAESPALVTPDSEKSAKHGSGAFYSPELLEALTLRFEAPDSRNRWDRPLFTLVGLEEPLPLAGIRSALFENRAPPPHQSTQSQPLASGSFLHQLDQVTSQVLAGLMEAQKSAVPGDLLTLPGTTEHLRFTRPLTMAELSRLRRQFISYTKMHPNNENLPQLANMFLQYLSQSLH | soluble |
| MGHHHHHHSHMRIVFDIGGSVLVPEKPDVDFITKLGYELTKISEDHEIAIVVGGGKVAREYIEVASKFNTNETFKDYLGIQITRANAMLLIAALKERAYPQVVSDFWEAWKAIQLKKIPVMGGTHPGHTTDAVSALLAEFLSADLLVVITNVDGVYTEDPKKNPNAKKIPKMKAKDLVDIVSREAGKAGVSTVIDPLAAKIIMRSGIKTYVIG | not soluble |
| MNSLFVDNTVFITRLKAGHIGRLVQALFEEWHGFEPWSSVDKIHAYYGRCLKDDELPLAFAAVDDSGILLGSAAVKRHDMESFPRYEYWLGDVFVLPEYRGKGIGRRLVAHCIGAARSLGIKFLYLYTPDVQIFYESFGWVVVGRHFHNGEWVTVMRLDVDKV | not soluble |
| MPLEASELKPTAGPLEASELKPTAGPLEASELKPTAGPLEASELKPTAGPLEASELKPTAGPLEASELKPTAGPLEASELKPTAGMYAFKAVKQYFYPSDNLKVLMHKFTDMVNFTINIMIEKNLTSRNSVSNEVYHKLKEYEIPSYYYIEAINKAVALVKTYRKRLKKKQKATVPHVEKPMLSTYYGFKIVGGNLMIPIANREYESIPLNAYVRDATSMVKVHSFALSAYTLSLTIGRDVDAIECTTTVGVDRNLRNATVGNEFHHEIYDLSNVVEIKQRYRKKESHFHRNDRRIREKILSKYGKRERNRVKQIMHETSKAIVSNASTRKEMIVLENIRGINKITKKGDGKGKDYRFLLKNAFPYGMLASQVMYKASWEGLPVIELTRKETRNTSRMCSVCGSLTRIEHGRILKCDSCGLEIDRDVNACINIAFRYRTCLKRSHKGLPGEAVKQSKDVEQMAGSQISTDILEHHHHHH | soluble |
| MQSFLQLVAHDLYAKIGNDLSRTVLVFPNKRANLFFNEHLAGESDQPIWSPAAMSISDLFRKLSVQKAGDPIRLVCELYKVFREETESQETLDDFYFWGELLISDFDDVDKNLVDANKLFSNLQDLKNLMDDYEFLDKEQEEAIQQFFQNFSIERRTVLKEKFISLWDKLGTIYHRYRENLAELGIAYEGMLYRNVIEQLDTTRLKYDKYIFVGFNVLNKVETKFFQLLQDADKAMFYWDYDLFYTKQIVKHEAGEFINRNLKLFPNELPESCFDTLRKPKNIRYISASTENAQARFLPEWVQSTLSTANEEKENAVVLCNEALLLPVLHSIPQEVENVNITMGFPLAQTPVYSFINAAMELQTNGYRTATGRFTYETVSAILKHPYTRQLSINAEPLERELTKTNRFYPLPSELKMDDFLIKLFTPRSGIKELCDYLTELIKDISLLYREESEYNDIFNQLYRESLFKSYTTINRLYSLIETGELNVRTDTLRRLVSKVLTASNIPFHGEPAIGMQVMGVLETRNLDFRNIILLSLNEGQLPKSGGDSSFIPYNLRKAFGMTTIEHKNAVYAYYFYRLIQRAENITLLYNTSSNGLNRGEESRFMLQLLVEGPHKITREYLEAGQSPQGTTDISIEKTPEVFERLRCSYDCSNPQSYILSPSALNAYLDCRLKFYYRYVARLKAPDEVSAEIDSALFGTIFHLSAQLAYTDLTANRKIIQKEDLERLLRNEVKLQNYVDLAFKQELFKVPADEKPEYNGVQLINSKVIVSYLKQLLRNDLQYAPFEMVAMEKPVAEKITIQTGQGPITLRLGGTIDRMDAKDTTLRIVDYKTGGSPKTPANIEQLFTPSETRPNYIFQTFLYAAIMSRQQSLKVAPSLLYIHRAASESYSPVIEMGEPRQPKIPVNNFAFFEDEFRERLQRLLKEIFDENEPFTQTEDTKKCAYCDFKAICKR | not soluble |
| MSLSRSEEMHRLTENVYKTIMEQFNPSLRNFIAMGKNYEKALAGVTFAAKGYFDALVKMGELASESQGSKELGDVLFQMAEVHRQIQNQLEETLKSFHNELLTQLEQKVELDSRYLSAALKKYQTEQRSKGDALDKCQAELKKLRKKSQGSKNPQKYSDKELQYIDAISNKQGELENYVSDGYKTALTEERRRFCFLVEKQCAVAKNSAAYHSKGKELLAQKLPLWQQACADPNKIPDRAVQLMQQMANSNGSILPSALSASKSNLVISDPIPGAKPLPVPPELAPFVGRMSAQENVPVMNGVAGPDSEDYNPWADRKAAQPKSLSPPQSQSKLSDSYSNTLPVRKSVTPKNSYATTENKTLPRSSSMAAGLERNGRMRVKAIFSHAAGDNSTLLSFKEGDLITLLVPEARDGWHYGESEKTKMRGWFPFSYTRVLDSDGSDRLHMSLQQGKSSSTGNLLDKDDLALPPPDYGTSSRAFPTQTAGTFKQRPYSVAVPAFSQGLDDYGARSVSR | not soluble |
